Experimental data: US20240409662A1, “ANTIBODY MASKS AND USES THEREOF” (Vibrant Pharma Limited, priority 2021, published 2024)
Like-named read-outs stand apart in the source and are kept apart here. No end group written: not given here.

Tests used:
SP34 [1] = assay: Masking capability of potential masks of SP34 (ELISA, BLI); type: binding; conditions: mask and linker fused to SP34 VH and/or VL
Method: (§1) Binding of the 19 M-TCEs to both their antigens CEACAM5 and CD3δε was assessed with BLI using ForteBio Red96 as described above.

MMP9 = molecular target: T1, MMP9 (Homo sapiens, UniProt P14780); assay: Removal of masks by MMP9 digestion, SDS-PAGE; type: biochemical; conditions: 100 nM activated MMP9, 37° C., 3 hr
T1 construct: purchased Acrobiosystems
Method: MMP9 proenzyme (proMMP9), purchased from Acrobiosystems, was dissolved to 100 μg/mL in MMP9 digestion buffer (50 mM Tris, 10 mM CaCl2), 150 mM NaCl, pH 7.6). 4-aminophenylmercuric acetate (APMA) was added to a final concentration of 1 mM. The proMMP9-APMA mixture was incubated at 37° C. for 24 hr to activate proMMP9.
The selected M-TCEs, after adjusting to MMP9 digestion buffer, was mixed with activated MMP9 to a final concentration of 100 nM. The samples were further incubated at 37° C. for 3 hr to allow M-TCEs to be digested by MMP9.
The M-TCEs with 14 AA, 16 AA and 18 AA linker could be completely or nearly completely digested, as only the faster migrating bands could be seen. […] Too short linker would make the removal of the masks difficult, probably because the employed enzyme, MMP9 in this case, could not fully engage with its digestion site in the M-TCEs.

HT29 cells = assay: PBMC co-cultivation assay, M-TCE-induced killing of HT29 cells; type: cell-based, human; conditions: for EC50: HT29 + human PBMC, 72 hours, read-out: Efficacy (EC50); for tumor cell killing efficacy: digested vs undigested, in words; for Digested vs. masked: ratio of EC50 non-digested to MMP9-digested
Method: Five digested and undigested M-TCEs were tested for their tumor cell killing capability in the presence of human PBMC.
A total of 5×10^3 cells in RPMI1640 medium (supplemented with 10% FBS and 2 mM glutamine) of the target cell line (HT29) were seeded in 96-well plates (Day 0). A dilution series of respective antibodies was performed in assay media and added to target cells. On Day 0, a total of 5×10^4 PBMCs were added to each well, and the final reaction volume was adjusted to 200 μl. Percentage viability of target cell was measured by […]. LDH was measured after 72 hours using the Cell Counting Kit-8 (CK04, Dojindo, Japan) according to the manufacturer's recommendations. The results were analyzed as mean and standard deviation (SD) from triplicate wells and plotted as 4-parameter non-linear regression fittings using GraphPad Prism 9 software (GraphPad Software, San Diego, CA, USA).

SP34 [2] = assay: BLI binding of SP34 to CD3ε1-27 mutant fusion proteins; conditions: FIG. 2B
Method: (§2) Measurement of bindings between CD3ε1-27 mutants-SP34 fusion, or M-TCE, and […] was conducted as described above but with AHC sensors to capture M-TCE, and […] was used as the analyte.
In some embodiment, binding of SP34 to the second batch of 42 variants of […] mutant fusion proteins were tested by BLI with a ForteBio Red96 as described above.

CD3δε [3] = molecular target: T2, CD3δε (Homo sapiens, UniProt P07766); assay: BLI binding of M-TCEs (captured on AHC sensors) to CD3δε; design: purchased ACRO (Beijing, China)
Method: (§3) Bio-Layer Interferometry (BLI) technique was employed for the measurement of protein-protein interactions in this study. A Octet Red96 system and Streptavidin (SA) or AHC biosensors (ForteBio, Fremont) were utilized.
as §2, §1
Target sequence in this assay (P07766 22-126 limits assumed): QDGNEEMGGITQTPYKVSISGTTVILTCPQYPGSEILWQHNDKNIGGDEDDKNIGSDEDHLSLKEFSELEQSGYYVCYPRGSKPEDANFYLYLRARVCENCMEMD
Target sequence in this assay (P04234 22-105 partner limits assumed): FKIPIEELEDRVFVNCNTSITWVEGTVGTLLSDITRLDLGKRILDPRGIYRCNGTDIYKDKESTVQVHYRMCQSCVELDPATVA

CD3δε [4] = molecular target: T2, CD3δε; assay: BLI (Octet Red96), SP34 on AHC biosensor, CD3δε as analyte
CD3ε-p1 = molecular target: T3, CD3ε-p1 (human); assay: BLI, biotinylated peptide on SA biosensor, SP34 as analyte
T3 construct: also called 5 AA N-terminal CD3ε peptide
T3 peptide: QDGNEGGGGS-biotin
Method: (§4) To measure the binding of SP34 to CD3ε peptides, the peptides were immobilized on the SA biosensor through SA-biotin interaction according the manufacturer's instruction. After running PBS with 0.01% Tween-20 buffer to stabilize baselines, the biosensors were dipped into solid black 96-well plates (Greiner Bio-One, Cat. #65520, Monroe, North Carolina, USA) containing SP34 in indicated concentrations. Association and dissociation were measured accordingly, and binding kinetics were calculated using ForteBio's Data Analysis 12.0 software.
(§5) BLI technology was employed to measure the affinity of the six peptides to SP34 with a ForteBio Red96. These peptides were immobilized on the SA Biosensor and their affinities were measured using SP34 as the analyte. The binding sensorgrams indicate that SP34 binds to all six peptides with very similar profiles (FIG. 1C). […] It is further hypothesized that a N-terminal CD3ε peptide […] can bind to SP34 as well.

CD3ε-p2 = molecular target: T4, CD3ε-p2 (human); assay: as above
T4 construct: also called 8 AA N-terminal CD3ε peptide
T4 peptide: QDGNEEMGGGGGS-biotin
Method: as §4, §5

CD3ε-p3 = molecular target: T5, CD3ε-p3 (human); assay: as above
T5 construct: also called 11 AA N-terminal CD3ε peptide
T5 peptide: QDGNEEMGGITGGGGS-biotin
Method: as §4, §5

CD3ε-p5 = molecular target: T6, CD3ε-p5 (human, biotinylation at the C-terminus); assay: as above
T6 construct: also called 17 AA N-terminal CD3ε peptide
T6 peptide: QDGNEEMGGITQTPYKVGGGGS
Method: as §4, §5

CD3ε-p6 = molecular target: T7, CD3ε-p6 (human, biotinylation at the C-terminus); assay: as above
T7 construct: also called 20 AA N-terminal CD3ε peptide
T7 peptide: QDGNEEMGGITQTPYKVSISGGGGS
Method: as §4, §5

CD3ε-p7 = molecular target: T8, CD3ε-p7 (human, biotinylation at the C-terminus); assay: as above
T8 construct: also called 23 AA N-terminal CD3ε peptide
T8 peptide: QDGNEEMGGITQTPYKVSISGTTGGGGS
Method: as §4, §5

CD3 on human PBMC [5] = molecular target: T9, CD3 on human PBMC (human, UniProt P07766 23-207); assay: cell-based or functional assay
CD3 on human PBMC [6] = molecular target: T9, CD3 on human PBMC; assay: cell-based or functional assay; remark: listed apart in the source
CD3δε [7] = molecular target: T2, CD3δε; assay: BLI affinity of SP34 (immobilized on AHC biosensor) to CD3δε as analyte; type: binding; design: purchased ACRO (Beijing, China)
Method: as §3
Target sequence in this assay (P07766 22-126 limits assumed): as the sequence (P07766 22-126 limits assumed) above
Target sequence in this assay (P04234 22-105 partner limits assumed): as the sequence (P04234 22-105 partner limits assumed) above
CD3δε was purchased from ACRO (Beijing, China) and used as the antigen for SP34 affinity measurement.
SP34 was immobilized on the AHC biosensor and its affinity to CD3δε was measured using the latter as the analyte. This approach was selected as it can avoid potential multivalent binding and give accurate affinity between SP34 and CD3δε.

T1 sequence (P14780 107-707 limits assumed): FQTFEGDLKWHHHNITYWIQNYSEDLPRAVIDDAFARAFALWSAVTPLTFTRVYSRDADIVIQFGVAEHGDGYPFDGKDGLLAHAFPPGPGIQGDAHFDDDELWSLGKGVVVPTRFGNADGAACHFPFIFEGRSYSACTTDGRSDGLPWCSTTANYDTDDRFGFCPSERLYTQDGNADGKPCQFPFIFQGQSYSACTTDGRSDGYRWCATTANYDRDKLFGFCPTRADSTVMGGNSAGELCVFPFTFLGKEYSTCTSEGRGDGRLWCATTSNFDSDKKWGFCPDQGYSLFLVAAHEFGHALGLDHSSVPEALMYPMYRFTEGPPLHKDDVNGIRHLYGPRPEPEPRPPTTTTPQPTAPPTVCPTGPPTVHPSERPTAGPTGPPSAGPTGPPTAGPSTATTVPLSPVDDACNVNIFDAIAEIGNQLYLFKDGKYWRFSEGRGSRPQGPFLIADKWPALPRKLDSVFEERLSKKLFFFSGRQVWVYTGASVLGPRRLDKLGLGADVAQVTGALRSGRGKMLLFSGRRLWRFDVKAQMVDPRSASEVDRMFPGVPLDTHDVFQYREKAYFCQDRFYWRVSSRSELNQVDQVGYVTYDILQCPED
T9 sequence (P07766 23-207): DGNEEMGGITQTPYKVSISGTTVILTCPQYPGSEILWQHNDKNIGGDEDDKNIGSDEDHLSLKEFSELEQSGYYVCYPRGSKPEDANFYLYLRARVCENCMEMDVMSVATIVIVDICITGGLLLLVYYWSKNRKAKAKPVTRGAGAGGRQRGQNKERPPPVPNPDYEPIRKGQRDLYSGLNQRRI

Molecule: L4-D2E: M-TCE; QEGNEEGSGSPLGLGSGS-SP34VH, SEQ ID NO 27
- Masking Capability (SP34 [1]): Yes
- digestion by MMP9 (MMP9): partially digested
- EC50 (HT29 cells; MMP9-digested): 0.011 nM
- EC50 (HT29 cells; Non-digested): 0.65 nM
- tumor cell killing efficacy (HT29 cells): higher efficacy in inducing tumor cell killing than their undigested counterparts
- Digested vs. masked (HT29 cells): 59×

Molecule: Q1C: Q1C mutant of the CD3ε1-27-Fc fusion protein
- binding of SP34 to fusion protein (SP34 [2]): maintained binding

Molecule: G3R: G3R mutant of the CD3ε1-27-Fc fusion protein
- binding of SP34 to fusion protein (SP34 [2]): maintained binding

Molecule: L2-G3R: M-TCE; QDRNEEGSPLGLGS-SP34VH, SEQ ID NO 43
- Masking Capability (SP34 [1]): Yes
- digestion by MMP9 (MMP9): could not be digested
- binding to CD3δε (CD3δε [3]; non-digested (masked), compared with non-masked TCE): lack of masking capability

Molecule: L4-G3A: M-TCE; QDANEEGSGSPLGLGSGS-SP34VH, SEQ ID NO 39
- Masking Capability (SP34 [1]): Yes
- digestion by MMP9 (MMP9): partially digested
- EC50 (HT29 cells; MMP9-digested): 0.012 nM
- EC50 (HT29 cells; Non-digested): 1.72 nM
- efficacy lower before mask removal (HT29 cells; before vs after MMP9 digestion): ~140 fold
- tumor cell killing efficacy (HT29 cells): could induce tumor cell killing both before and after MMP9 digestion
- Digested vs. masked (HT29 cells): 144×
- EC50 of MMP9-digested M-TCE relative to unmasked TCE (HT29 cells; vs SP34-CEA): approximately 10 fold
- binding to CD3δε (CD3δε [3]; after MMP9 digestion): largely restored the binding

B1: SP34 chimeric antibody (antibody, V domains shown)
VH: EVKLLESGGGLVQPKGSLKLSCAASGFTFNTYAMNWVRQAPGKGLEWVARIRSKYNNYATYYADSVKDRFTISRDDSQSILYLQMNNLKTEDTAMYYCVRHGNFGNSYVSWFAYWGQGTLVTVSS
VL: QAVVTQESALTTSPGETVTLTCRSSTGAVTTSNYANWVQEKPDHLFTGLIGGTNKRAPGVPARFSGSLIGDKAALTITGAQTEDEAIYFCALWYSNLWVFGGGTKVEIK
notes: VH and VL fused to the constant regions of human IgG1
- Kd (CD3δε [4]): 5.8 nM
- koff (CD3δε [4]): 0.0032 s⁻¹
- kon (CD3δε [4]): 550000 M⁻¹ s⁻¹
- Kd (CD3ε-p1): 0.99 nM
- koff (CD3ε-p1): 0.00016 s⁻¹
- kon (CD3ε-p1): 160000 M⁻¹ s⁻¹
- Kd (CD3ε-p2): 3.6 nM
- koff (CD3ε-p2): 0.00024 s⁻¹
- kon (CD3ε-p2): 65000 M⁻¹ s⁻¹
- Kd (CD3ε-p3): 2 nM
- koff (CD3ε-p3): 0.00011 s⁻¹
- kon (CD3ε-p3): 56000 M⁻¹ s⁻¹
- Kd (CD3ε-p5): 1.8 nM
- koff (CD3ε-p5): 9.8e-05 s⁻¹
- kon (CD3ε-p5): 54000 M⁻¹ s⁻¹
- Kd (CD3ε-p6): 3.5 nM
- koff (CD3ε-p6): 0.00016 s⁻¹
- kon (CD3ε-p6): 46000 M⁻¹ s⁻¹
- Kd (CD3ε-p7): 1.3 nM
- koff (CD3ε-p7): 0.00013 s⁻¹
- kon (CD3ε-p7): 100000 M⁻¹ s⁻¹

B2: MMP9-digested L4-G3A (bispecific antibody, not shown: small tags and cut ends)
heavy: EVKLLESGGGLVQPKGSLKLSCAASGFTFNTYAMNWVRQAPGKGLEWVARIRSKYNNYATYYADSVKDRFTISRDDSQSILYLQMNNLKTEDTAMYYCVRHGNFGNSYVSWFAYWGQGTLVTVSS
light: QAVVTQESALTTSPGETVTLTCRSSTGAVTTSNYANWVQEKPDHLFTGLIGGTNKRAPGVPARFSGSLIGDKAALTITGAQTEDEAIYFCALWYSNLWVFGGGTKVEIK
chain: EVQLVESGGGFVQAGESLTLSCTSSTLTFTPYRMAWYRQAPGKQRDLVADISSGDGRTTNYADFAKGRFTISRDNIKNTVFLRMTNLKPEDTAVYYCNTFVSFVGIARSWGQGTQVTVSSESKYGPPCPPCPAPEAAGGPSVFLFPPKPKDTLMISRTPEVTCVVVDVSQEDPEVQFNWYVDGVEVHNAKTKPREEQFNSTYRVVSVLTVLHQDWLNGKEYKCKVSNKGLPSSIEKTISKAKGQPREPQVCTLPPSQEEMTKNQVSLSCAVKGFYPSDIAVEWESNGQPENNYKTTPPVLDSDGSFFLVSRLTVDKSRWQEGNVFSCSVMHEALHNRFTQKSLSLSL
- killing EC50 of MMP9-digested M-TCE against that of unmasked TCE SP34-CEA (CD3 on human PBMC [5]): ~10 fold
- EC50 of M-TCE-induced killing of HT29 cells in the presence of human PBMC (CD3 on human PBMC [6]): 0.012 nM

B3: SP34: anti-CD3 antibody; VH and VL (SEQ ID NOs 1, 2) fused to human IgG1 constant regions, chimeric antibody (antibody, V domains shown)
VH: EVKLLESGGGLVQPKGSLKLSCAASGFTFNTYAMNWVRQAPGKGLEWVARIRSKYNNYATYYADSVKDRFTISRDDSQSILYLQMNNLKTEDTAMYYCVRHGNFGNSYVSWFAYWGQGTLVTVSS
VL: QAVVTQESALTTSPGETVTLTCRSSTGAVTTSNYANWVQEKPDHLFTGLIGGTNKRAPGVPARFSGSLIGDKAALTITGAQTEDEAIYFCALWYSNLWVFGGGTKVEIK
modifications: human IgG1 constant regions; VH of anti-CD3 antibody SP34; VL of anti-CD3 antibody SP34
- ka (CD3δε [7]; SP34 immobilized, CD3δε 9.4-150 nM as analyte): 550000 M⁻¹ s⁻¹
- kd (CD3δε [7]; SP34 immobilized, CD3δε as analyte): 0.0032 s⁻¹
- Kd (CD3δε [7]; monovalent binding of SP34 to CD3δε): 5.8 nM
